In a protein production outcome set (Wang et al. 2014) one finds protein production data, which are given here for 22 sequences.

A short description of the series: label from the status in PepcDB records.
For “VGTIDQLVKRVIEGSLSPKERTLLKEDPAYWFLSDENSLEYKYYKLKLAEMQR”, the protein production result is listed as “not failed”.

Turning to “MKTVLAFGDSLTWGADPATGLRHPVEHRWPDVLEAELAGKAKVHPEGLGGRTTCYDDHAGPACRNGARALEVALSCHMPLDLVIIMLGTNDIKPVHGGRAEAAVSGMRRLAQIVETFIYKPREAVPKLLIVAPPPCVAGPGGEPAGGRDIEQSMRLAPLYRKLAAELGHHFFDAGSVASASPVDGVHLDASATAAIGRALAAPVRDILG”, the protein production entry is given as “not failed”.

As to “MIIQKIKQFFVGSERTIKAKKNIIASLLVKMLSIIISLLLVPVTLNYLNSYEYGVWLTLSSILVWINYFDIGLGNGLRNRLTEALAIGDYEKGRIYISTTFAILLILMLTIYLLYAFLQHFISWKSILNISTNHAFTDLNYLVLIVFAFFCISFVLKFVGIIYLAKQQPVINDLFGAIANLMSLIVIYILTLVTDGNLTYVAIVFSSAPAVVYLLAYPFTFYYKYPNLAPKISAINFHYAKGLLGLGFQFFIIQVSCLLMFATSNILIAQLCGPEEVTPYNIAYKYFSVITMGFTIVITPFWSAVTDALIKEDFLWIRKGIINMLKVWLFFLLCSLVMLFVASWVYSFWVNMSIPFYLSLLLFVYISIFNWNNMFAYFVNGMGKIRLQLYCSVISGGIFIPLAILLGQLWGLVGIIGSMCFSLLVSAVLMPIQLKLLLAKSATGIWNK”, the protein production entry is listed as “failed”.

Consider “MTKKEKGTMMTLAAGLAWGISGISGQYLMSHGVHVNLLTSLRLLITGIFLLSLARSKQKEHLVAAWKQPKFLKQVLLFSIFGLVLNQYAFLRAIHLTNAGTATVLQYMAPILILSIVCILNRQRPTSFEIIAIAMAILGTYMIATHGKLGSLAITPKGLMWGLGSAITYSIYILLPVKLIHEWGSTIVIGSGMFIGGILFSLVTKAWQYPLQINVMSILAYIGIIGIGTIFAYTFFLKGVSIVGAVKGSLLASVEPVSSVFLTVLVLGEIFYPIDLLGMLFIFLAVTLISYKDLIALKKMKRVR”, for which the protein production result is “failed”.

As to “MKKVLALVAFVVLFSFSFLSAGVTAQAALKDGTYSVDYTVLQGDSDSVSMANDYFDKPATVTVNGGKSTVSLQVNHSKWITGLWVEGNAVSVTSKNTASDTRKVSFPVSTLSSPVNAKIKVDIDDDGLNYHHEYQIQLRFDEGAVKSSGAAV”, the protein production entry was “failed”.

With “MTNDKPFVDLRQYDQSWFDRGRSAWYILLWWLVQAIAFPLTPHFSSNIRCWILRLFGARIGKGVVVRPTARFTFPWKVTIGDYSWVGDDVVFYSLDEIHIGQHCVISQKSYLCTGSHDIQDPTFRLKVAGITIGNGAWVATDCFIAPGVQIGANAVIGARSSVFTSMPTGQVCWGSPCRPQHPRLKE”, the protein production result is “failed”.

As for “QSAKEAIEAANADFVKAYNSKDAAGVASKYMDDAAAFPPDMARVDGRQNIQKLWQGAMDMGISELKLTTLDVQESGDFAFESGSFSLKAPGKDSKLVDAAGKYVVVWRKGQDGGWKLYRDIWNSDPAK”, the protein production result is recorded as “not failed”.

In the case of “MKPADLTNADRIALELGHAGRNAIPYLDDDRNADRPFTLNTYRPYGYTPDRPVVVVQHGVLRNGADYRDFWIPAADRHKLLIVAPTFSDEIWPGVESYNNGRAFTAAGNPRHVDGWTYALVARVLANIRAAEIADCEQVYLFGHSAGGQFVHRLMSSQPHAPFHAVTAANPGWYTLPTFEHRFPEGLDGVGLTEDHLARLLAYPMTILAGDQDIATDDPNLPSEPAALRQGPHRYARARHYYEAGRRAAAQRGLPFGWQLQVVPGIGHDGQAMSQVCASLWFDGRMPDAAELARLAGSQSA”, the protein production result is given as “failed”.

Regarding “MSAICQVTGRQPGYGKSVSHSHRRTSRRWNPNVQRRKFYLPSEGRTITLNVSTKGLKVIDRDGIESVVAKIRARGEKILEHHHHHH”, the protein production entry is on record as “failed”.

Regarding “MYDWFSEMRKKDPVYYDGNIWQVFSYRYTKEVLNNFSKFSSDLTGYHERLEDLRNGKIRFDIPTRYTMLTSDPPLHDELRSMSADIFSPQKLQTLETFIRETTRSLLDSIDPREDDIVKKLAVPLPIIVISKILGLPIEDKEKFKEWSDLVAFRLGKPGEIFELGKKYLELIGYVKDHLNSGTEVVSRVVNSNLSDIEKLGYIILLLIAGNETTTNLISNSVIDFTRFNLWQRIREENLYLKAIEEALRYSPPVMRTVRKTKERVKLGDQTIEEGEYVRVWIASANRDEEVFHDGEKFIPDRNPNPHLSFGSGIHLCLGAPLARLEARIAIEEFSKRFRHIEILDTEKVPNEVLNGYKRLVVRLKSNE”, the protein production result is “not failed”.

On to “MVNLDAEIYEHLNKQIKINELRYLSSGDDSDTFLCNEQYVVKVPKRDSVRISQKREFELYRFLENCKLSYQIPAVVYQSDRFNIMKYIKGERITYEQYHKLSEKEKDALAYDEATFLKELHSIEIDCSVSLFSDALVNKKDKFLQDKKLLISILEKEQLLTDEMLEHIETIYENILNNAVLFKYTPCLVHNDFSANNMIFRNNRLFGVIDFGDFNVGDPDNDFLCLLDCSTDDFGKEFGRKVLKYYQHKAPEVAERKAELNDVYWSIDQIIYGYERKDREMLIKGVSELLQTQAEMFIF”, for which the protein production entry is given as “not failed”.

In the case of “MSVEPTSVDPSPDKSAPANASGRADASARPSTGESARPSGGETPEVLRPHAEVTFAAELAALAAQDDRPRPVRWRLSPWAVATYLLGGTLPDGTVITPKYVGPRRIVEVAVTTLATDRALLLLGVPGTAKTWVSEHLAAAVSGDSTLLVQGTAGTPEEAIRYGWNYAQLLAHGPSRDALVPSPVMRAMADGMTARVEELTRVPADVQDTLITILSEKTLPIPELGQEVQAVRGFNLIATANDRDRGVNELSSALRRRFNTVVLPLPESADAEVDIVSRRVDQIGRSLDLPAVPDGVDEIRRVVTVFRELRDGVTTDGRTKLKSPSGTLSTAEAISVVTNGLALAAHFGDGVLRASDVAAGILGAVVRDPAADRVIWQEYLEAVVRERDGWMDFYRACREVSALEHHHHHH”, the protein production result was “not failed”.

Turning to “MGIHLFWDSRVPVGLSRPVSEELSAVLEMPVSRIDDGIFPLEGFDPVRNQYDAVKVLLKLDMFRRRMPQIFKPADMDLEFYNKFNHLHEKILLVTPGDLYEPLADFVFGLAYPKLGVAIVSPHRLQNEFYGKYADDSALIDRIVKEGAHEIGHLFGLGHCDNPGCIMYCPRNLDELDRKRKYFCGKCRVQLNGDTLEDDLFSLEHHHHHH”, the protein production result is reported as “not failed”.

Take “MPATPSLKVVHELPACTLCAGPLEDAVTVPCGHTFCRLCLPALSQMGAQSSGKILLCPLCQEEEQAETPMAPVPLGPLGETYCEEHGEKIYFFCENDAEFLCTSECRTTDGFGCA”: the protein production result was “failed”.

In the case of “MSLHDQRVHAERDPLDPQAHGLTITRIETIPMVAPLAREFRGSHYHMTHRATIVTRVHTDAGIIGEAYTGDEHETMFDIDRIIHEELAPTLIGQDAMAIERLWDSGYKVTFDILRDRRLGLVALAAVNTAIWDAVGKALKMPLWKLWGGYRNELPMIAIGGYYGEPLGSIADEMHNYQELGLAGVKFKVGGLSAAEDAARITAAREAAGDDFIICIDANQGYKPAVAVDLSRRIADLNIRWFEEPVEWHNDKRSMRDVRYQGSVPVCAGQTEFSASGCRDLMETGAIDVCNFDSSWSGGPTAWLRTAAIATSYDVQMGHHEEPQVSTHLLASQPHGTIAECFHPDRDPFWWNMITNRPKLNNGTLTLSDRPGLGWDLNWDYIDQYRVSKDEGHHHHHH”, the protein production result was “not failed”.

Regarding “AGVVVPKYTPSTENPGGPGEEPGDGLIDPAEPLDRGFMHLKGRELKSLNSISITGLNDGEKVILSTLAGLAARVTGDQVYINEGGPSSVWLKQMQNKYGIPVNTYNALAPLVQHYVETGVIKGYIVYTPYSEGQSHSINVATSLCGLLRGIAVPESLVDKVKAMGVTTELMDVRSYDEKWLYENYKDQLDKSLAADMKPEIFHHLRDYITMTNAFAFYDYNARRDWSWRTSILKDLDKGAYCFGYYDLDEWGMVNNASQLGVSMLPTDQAANLATLSSIYDTTGLKQRPATKEVVTEENVHYVTFLVSDGDNIAFNLWGQQGYMDHDLHGQFPLGYTISPSLYDLAPAALRWYYENSKEGDYFVAGPSGSSYIFPSKMSDADLDDYLAKLNEYVDKSGLNICNILDQKIMDNPKVYNKYLAQPNIDAIFYTGYGEKGDGRIKFSDNGKPVIEQRSVLWEGIDGGSNRGEESTVISQINSRSANPHSADGYTFVFVHCWTKNQQSIKTVIDGLNDNVRVVPVDQFVQLVKQNLGPK”, the protein production entry is recorded as “not failed”.

With “MKALHFGAGNIGRGFIGKLLADAGIQLTFADVNQVVLDALNARHSYQVHVVGETEQVDTVSGVDAVSSIGDDVVDLIAQVDLVTTAVGPVVLERIAPAIAKGLVKRKEQGNESPLNIIACENMVRGTTQLKGHVMNALPEDAKAWVEEHVGFVDSAVDRIVPPSASATNDPLEVTVETFSEWIVDKTQFKGALPNIPGMELTDNLMAFVERKLFTLNTGHAITAYLGKLAGHQTIRDAILDEKIRAVVKGAMEESGAVLIKRYGFDADKHAAYIQKILGRFENPYLKDDVERVGRQPLRKLSAGDRLIKPLLGTLEYSLPHKNLIQGIAGAMHFRSEDDPQAQELAALIADKGPQAALAQISDLDANSEVVSEAVTAYKAMQ”, the protein production result is given as “failed”.

With “MEVMVFTPKGEIKRLPQGATALDFAYSLHSDLGDHCIGAKVNHKLVPLSYVLNSGDQVEVLSSKSQQPTELEHHHHHH”, the protein production entry is on record as “not failed”.

“MHKVVIVGRPNVGKSSLFNRLLKKRSAVVADVPGVTRDLKEGVVETDRGRFLLVDTGGLWSGDKWEKKIQEKVDRALEDAEVVLFAVDGRAELTQADYEVAEYLRRKGKPVILVATKVDDPKHELYLGPLYGLGFGDPIPTSSEHARGLEELLEAIWERLPVRQIETEPEVAGIRLAIVGRPNAGKSSLLNAILGEERVIVSEEPGTTRDAIDVEFFFGGQRFVLVDTAGIRKRPENLVEELAIRRSLRAMDEADVVLLVVDPFQVGDRELKLANEALDRGKPVLLVITKWDLVDKEDAPKMRRLLREKLAHLDHLPRVFTSALTRQNLDRIFREAVRLHELNQTRVPTAELNRWVAVWTSRVQMPNFKGKPLKILYATQPEVAPPTFVFFVNHPEFVTRAFENYLKNRIGEDLGLREVPFRLVFRGRREE”: the protein production entry was “not failed”.

Take “LDALRRYHRQTLQELPMGVCSLAKDQEILMWNKAMEELTGIPAQHVVGSRLSTITNPWKDLLQGFINLPDEHLHKQHLALDGQTRWLNLHKAAIDEPLAPGNSGLVLLVEDLTETQTLEDKLVHSERLASIGRLAAGVAHEIGNPITGI”: the protein production result is “failed”.

Turning to “MQVQVSGKHVDVGEALRARVSDEIALSIGKYFDRGGAAEVVVSKEGYAFRVDCSVKLASGQQLISHGSGGDAHAAFDAALAKIDTRIRRYKRRLKSHSAAATAKQVENAAMFVLRAPESDDVDEDWDIEDDHPTGAPAAMVIAETQAAMKTMTVSMAVMELDLTAYPAIVFRNAAHGGISVVYRRPDGNIGWIDPERTKSNGHGSTAS”, the protein production entry is reported as “failed”.

Turning to “MDEKKIPRSLQAIIAQVKAHYADDQELQTLFEQCFLNTYLTTIQEDEQGTFVVTGDIPAMWLRDSSAQVRPYLTVVKEDADMARMIKGVIERQWRYILHDPYANAFNQTANKQGHQQDRTEMSPLVWERKYELDSLCYPIQLAYLYWKATGDDSVLQPTLKQVLETIYRIWKIEQDHEAKSSYSFERDDCRVSDTLLRKGKGGYSVPTGMTWSGFRPSDDACLYGYLIPANMFAVVVSNYAVELLTAMEEIKLAEEFRELEADIRQGIGQYGKMDHPVYGEIYVYETDGNGRVNLMDDANVPSLLAIPYLGYTTADDPVYQNTRRFILSRDNPYYYEGSYAKGVGSPHTPDHYVWHISLAIQGMTAIDSKEKKQIVAMFKQTHADTYFMHEGFDVDRPEQYTRSWFAWANSMFSEFLLSEAGIYVPGSPLENMKNNKAGDRHVLSTGKAAKPNQ”, the protein production entry is “failed”.
